Measurements as given in IntAct's records for PubMed 21276203.

B1: Serine/threonine-protein kinase OXI1 (Arabidopsis thaliana (Mouse-ear cress)), Q9LSF1 (parent)
chain: MLEGDEKQSRALDFNRLEVLSLLGRGAKGVVFLVRDDDAKLLALKVILKEAIEKKKKGRESEDDEYKRVSFEQGVLSRFDHPLFPSLHGVLATDKVIGYAIDYCPGQNLNSLRKMQSESMFSDEIIRFYAAELVLALDYLHNQGIVYRDLKPDNVMIQENGHLMLIDFDLSTNLAPRTPQPSPSLSKPSPTMKRKKRLFRFTSFCNSGISPQESISVHSSSTLAVSDSSGEKSNSFVGTEEYVAPEVISGDGHDFAVDWWSLGVVLYEMLYGATPFRGSNRKETFYRILSKPPNLTGETTSLRDLIRRLLEKDPSRRINVEEIKGHDFFRGVDWEKVILVSRPPYIPAPDDGGDKGTDVNTKMDVENIVQEIFAARQEREKQSGDNNKNANMKIKDNTSGEWVKGLNNNHDLESDNNFLVF
partner: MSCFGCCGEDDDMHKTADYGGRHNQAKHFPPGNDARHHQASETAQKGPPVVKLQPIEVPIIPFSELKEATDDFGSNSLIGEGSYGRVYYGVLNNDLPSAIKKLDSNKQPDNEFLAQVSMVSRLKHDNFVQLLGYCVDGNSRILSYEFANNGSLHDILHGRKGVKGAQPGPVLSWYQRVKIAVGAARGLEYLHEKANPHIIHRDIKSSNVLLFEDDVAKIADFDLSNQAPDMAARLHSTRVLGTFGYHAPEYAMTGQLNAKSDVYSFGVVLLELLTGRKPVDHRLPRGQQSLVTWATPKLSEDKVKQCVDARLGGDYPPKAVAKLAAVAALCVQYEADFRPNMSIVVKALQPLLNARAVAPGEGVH

Variants of: B1
Conditions: with y2706, O80719
K45R was tested, and the “effect of a mutation on the interaction” value was “disrupting interaction”.
